# System: primary human B cells
# Assay: Expansion and maintenance of BCL-6/BCL-XL/CD40L transduced primary human B cells in culture
# Type: cell-based
# Settings: BCL-6/BCL-xL transduced B cells, IL-21 50 ng/mL, absence of L-cells
# Experimental: The activated, isolated B cells (FIG. 7A) were stably transduced with BCL-6/BCL-xL or a combination of BCL-6/BCL-XL and CD40L based protocols for retroviral transduction of primary B cells have been described in the literature (e.g. Kwakkenbos et al. Nat Med 2010) and as described in this invention (Example 10).
# After 72 hours BCL-6/BCL-XL modified B cells were harvested, split and either cultured in the absence of L-cells or cultured on hCD40L expressing L cells. BCL-6/BCL-xL and CD40L transduced B cells are cultured in complete B cell medium supplemented with 50 ng/mL IL-21 in the absence of L-cells. […] CD40L expression on the B cells is measured on a flow cytometer using an antibody directed against CD154 (FIG. 7C).
# B cells were isolated from healthy donor PBMC using the magnetic bead-based cell separation method from Miltenyi. […] Purity of the isolated B cells was measured by FACS using antibodies directed against CD3 and CD20. […] Expression of BCL6/BCL-xL was measured by FACS by GFP expression. […] Expression of BCL6/BCL-xL was measured by GFP expression and expression of CD40L was measured using an antibody directed against CD154, analyzed by FACS. […] Cells were split twice a week at a concentration of 0.2e6/mL cells and cell viability was analyzed. […] The total cumulative cell counts was calculated based on counts that were measured while splitting the cells. […]
molecule,measurement,value
CD40L transgene: hCD40L transgene expressed in BCL-6/BCL-xL immortalized B cells (protein) DNA: MIETYNQTSPRSAATGLPISMKIFMYLLTVFLITQMIGSALFAVYLHRRLDKIEDERNLHEDFVFMKTIQRCNTGERSLSLLNCEEIKSQFEGFVKDIMLNKEETKKENSFEMQKGDQNPQIAAHVISEASSKTTSVLQWAEKGYYTMSNNLVTLENGKQLTVKRQGLYYIYAQVTFCSNREASSQAPFIASLCLKSPGRFERILLRAANTHSSAKPCGQQSIHLGGVFELQPGASVFVNVTDPSQVSHGTGFTSFGLLKL,B cell expansion without CD40L-expressing feeder cells,can be used as a replacement for CD40L-expressing feeder cells for expansion
